Substrate in the data set “purified protein”: O=NO
In words: purified protein. It is filed as biochemical, Nitrososphaera viennensis. The conditions noted are these: anoxic, 0.5 mM benzyl viologen, 0.24 mM dithionite, 20 mM phosphate pH 6.5, 25°C, labelled compound.

Substrate in data set [1]: NO
In words: colorimetric NH2OH consumption. Particulars: aerobic, dissolved O2 as oxidant, pH 7.5, 30°C. It is filed as biochemical, Nitrososphaera viennensis. The text has this:
colorimetric NH2OH consumption on Ns. viennensis NirK

These results are taken from article PMC6308003, “Nitric Oxide Production from Nitrite Reduction and Hydroxylamine Oxidation by Copper-containing Dissimilatory Nitrite Reductase (NirK) from the Aerobic Ammonia-oxidizing Archaeon, Nitrososphaera viennensis” (Microbes and Environments, 2018).

B1: Ns. viennensis NirK (Nitrososphaera viennensis EN76) (protein)
chain: APTGVTRHYTLIANEMEVQVAPDNALHPGGIKYNAMVFNGTIPGPVMASNAGDTVEITLKNEGKQIHSIDFHAAIGPSQVLSGNIAAGESKTWTFNTPNSGAFMYHCGADALNGVWEHIANGMYGAFVVHPTNEAPAKEFYVAFGEIYNSADGGLFVGANGTGSFDIMKFATEQPDLILTNGMAHRYVPAIGQSVKLDLNANATVFQVKPGELTRWYILAPGPNEGVSFHFISGQIDVRDGSFKTRNMAPVRNEETWWIPVGSASVIESVFPEEGLYVGVDHNMAHVLRGGAFAVLATNNSTADDVPPEAWVPSKAWLNEHAEMGGSMMGGSAGNNATSGGNTTSG
notes: signal peptide Met1-Ala24 removed, 6xHis tag (pCold I), E. coli BL21(DE3), Cu-reconstituted
As for B1, the Km (as a rule, the substrate concentration at which the rate is half of its maximum) in the data set “purified protein” was found to be 287 µM; in data set [1] it was 97 µM. Further, the kcat – broadly, the maximal rate divided by the concentration of active sites – came to 3.1 s⁻¹ in “purified protein” and 0.039 s⁻¹ in data set [1].
